Data published in the DeepSol protein solubility set.

Assay: soluble on expression in E. coli; label from the status in PepcDB or PDB records
With “MGSDKIHHHHHHLVGISHDTDQRILEQAMNMIRENGEDQLSLRKLARAIGLTTGAFYKHFATKDALLRAVTQLLSQREEAEMAQVLGQITDPEEKLLVMAAEILERFEADPHLMHFLFFNPAARDVLKVEPGQFGFYDQVIQLIKDVLRKRGITIDPQILFIQLWSFIQGYGLLIDSGITSYDPNLVRKTLKDLLEVSND” the “soluble on expression in E. coli” value was “not soluble”. In the case of “MTRLAVEAAEQARLAAEVEAQRIAAETAEHARVVAEAEAKRVADEQALFAAEAEAHRITAEAAEQARMEAEAQAQRDADEHARVTAEAQALEAGKTLRLPEAGTPQLGAVAGVISVTAGSGLFLDATIQAAIEILAALVGTAVSSTTAVGIGTLLYSPSLGNGELPGRMLDLPARVLMPDLPDALNDVAATGGTVDMPYRIYGDQSKYSVVATQPEGGFSPKVPVRALILDPVANAYTFTTSDTPPITLTFPIAAPENSSTTTVAQPIETPAYTGITLEPIEVKAEPLPATSPLDIRDAIYVYPVNSGLPPVYVVFSSPYEGATTKGEHSGRMYDPDNAGGPTQNLDWTTASVTQNGIDLVKLHTGRFEPSDANAVMIDRLEKILRSELSMTDTDKRFYTHELRELERYRALGVADGVEGEVWNNAHTATLEDYKLKDSSESFYTPEAITAENKQVYGELEHHHHHH”, the “soluble on expression in E. coli” value is reported as “not soluble”. In the case of “MIDKSSKRDKEVEPLKDNISILIMGVDGSEMRKSQYGEAVRTDALLLATINKDDKSVKLVSIPRDSRVYIPSRKKLDKITHAHVFGGVESTRDTVERFLNVPVDYYVKFNFESFVQIVDSLGGIDIDVPVTFTEQDSKDQAGMIHLEKGYQHLNGEQALALARTRKIDSDAMRGQRQQLVIEAIAKKAMSVQSISKMGSLLDAVDKNMKTNLTFDDMLAITKNMAGSNLEMEKMQVEGTDKRIGGIYYYIPNEKNVKDISKKLNEHLGVLEHHHHHH”, the “soluble on expression in E. coli” value is reported as “soluble”. For “MVMKLIKRSLLLLGAVLLITLPAYSQNDDIFEDDIYTSRKEIRKQNQVKDWQNQEDGYGDDTEYTVASDRDIDAYNRRDGQSYDGKKLSKDKKRDSTRSSVPGRYSRRLARFYKPNTIVISGADNVYVTDDGEYFVYGDEYYDDASSVNIYINSPWCDPFPYTSWYPSFSGWYNYTWNYPWFYYGSHIGWGGYYPGYNWYWSYYYDPFYNPYGIGMGWGYPYGWGSYYGWGGYPGVIHHYHHYPKKTYSNGQHSGAYYSYGRPNRIKGGTSGAKLGTGRYDRIQNSSSQKNKFGLQSNKPNNNLQNVKSGRTGRANRDRNIETVTPNNGQKQNRPVFQQNQSGNDRPTGRNIRSERQGENNDRTFSTPSRSNSNGGFSTPSRSSSGSMSGGGGRSGRGRN”, the “soluble on expression in E. coli” value was “not soluble”. With “MNIIGLDISKDTIDATLHKTNGSIHYIKFKNNDDGLKQFRLWIKGNRIRKVYIGMEATGIYYEKAADMLSSYYTVYVINPLKIKDYGKSRFNRTKTDKADSNLIADYIKRHQDTLIPYQIPKNKALQKLINLKNQLHQHQKQIKNRLHSTEEDFIRNIHQDLIDTIQDKMEQVKIAISEQIKKQTDNNHYRNLQTIPSIGKDTASVLYAQLTEKHFKTANQFVSYAGLNPAIIQSGTSVRGRGRLSRYGNRRLKSTLYMPALCAYRFNAFPKLINNLKKAGKPKMVIIVAIMRKLAKLAYYIVKTGQPYDAERHRLNQ” the “soluble on expression in E. coli” value was “not soluble”. For “MPDSSQLVIGAGLDGLPIAQAMRLANRHGLVAGATGTGKTVTLQRLAEAFSDAGVAVFAADIKGDLCGLGAAGNPQGKVAERIAGMPWLKHQPQAYPVTLWDIHGQSGHPLRTTLSEMGPLLLGSLLELTDSQQSALYAAFKVADREGLLLLDLKDLKALLNHLKDNPQLLGDDAALMTTGSSQALLRRLATLEQQGAEALFGEPALQLEDILQPAADGRGRIHLLDASRLVHEAPKVYATFLLWLLAELFEQLPERGDADKPLLALFFDEAHLLFAGTPKALQDRLEQVVRLIRSKGVGVYFVTQSPGDLPDNVLAQLGLRIQHGLRAFTAKEQKSLRAVADGFRPNPAFDAQAVLTELGIGEALVGTLQDKGTPEMVQRVLVAPPQSRIGPLTEAERQALIASSPLLGRYDKPIDRESAYEVLLGRKELAPQDQQPSGKAAAEEPSLADRAGEFLGTAAGQALKSAMRQAANQLGRQLVRGLMGSLLGGSKRR”, the “soluble on expression in E. coli” value was “soluble”. With “MAHHHHHHMASADVVSTWVCPICMVSNETQGEFTKDTLPTPICINCGVPADYELTKSSINCSNAIDPNANPRNQFG” the “soluble on expression in E. coli” value was “soluble”. With “MTIRVAINGFGRIGRNFLRCWFGRQNTDLEVVAINNTSDARTAAHLLEYDSVLGRFNADISYDENSITVNGKTMKIVCDRNPLNLPWKEWDIDLVIESTGVFVTAEGASKHIQAGAKKVLITAPGKAEGVGTYVIGVNDSEYRHEDFAVISNASCTTNCLAPVAKVLHDNFGIIKGTMTTTHSYTLDQRILDASHRDLRRARAAAVNIVPTTTGAAKAVALVIPELKGKLNGIALRVPTPNVSVVDLVVQVEKPTITEQVNEVLQKASQTTMKGIIKYSDLPLVSSDFRGTDESSIVDSSLTLVMDGDLVKVIAWYDNEWGYSQRVVDLAELAARKSGRLGLVQTLLISSQDSLPLTGGFFVAKREHPRSQDSINPSGPD” the “soluble on expression in E. coli” value was “soluble”. With “MAKATYACVECGYRTPKPLGRCPSCGSWESFQEVAPAPASRRAKPSPLPLLALSQVDEAEERRFSSGLSEVDRVLGGGFVTGEVVLLGGEPGVGKSTLLLEMAKRMPQRVYYVAGEESPAQIKLRAQRLGVKDLLLVRETRLEPLLALLEEDPPEVLFVDSVQTLEAGGSPGSLVAVREATSALVRFAKESGAAVVLVGHVTKEGVVAGPKSVEHAVDATLYLETAGPYRVLRSAKNRFGPVGEIGVFRMEEAGLLEVENPSEAFLKERPLGVPGSAVALALAGERALALEVQALAAKTPFPAPRRVVQGLDSRRVDVVLAVLERRLGLPLANLDIYVNLAGGLKVQDPGLDLAVALAVYSAVVGRPLPADLALVGEVGLAGEVRRVAGLERRLREGERAGFGRFLHPGNLKRLQEAVEAYLALEHHHHHH” the “soluble on expression in E. coli” value was “not soluble”. For “MASNSRSSISPWTFSQNKMFERALAVYDKDTPDRWHNVAKAVGGKTVEEVKRHYDILVEDLINIETGRVPLPNYKTFESNSRSINDFDTRYITKYLYMMLSIYFDNHSSDFEKFSQKVLVSYISLV”, the “soluble on expression in E. coli” value was “soluble”. In the case of “MTQQEYQNRRQALLAKMAPGSAAIIFAAPEATRSADSEYPYRQNSDFSYLTGFNEPEAVLILVKSDETHNHSVLFNRIRDLTAEIWFGRRLGQEAAPTKLAVDRALPFDEINEQLYLLLNRLDVIYHAQGQYAYADNIVFAALEKLRHGFRKNLRAPATLTDWRPWLHEMRLFKSAEEIAVLRRAGEISALAHTRAMEKCRPGMFEYQLEGEILHEFTRHGARYPAYNTIVGGGENGCILHYTENECELRDGDLVLIDAGCEYRGYAGDITRTFPVNGKFTPAQRAVYDIVLAAINKSLTLFRPGTSIREVTEEVVRIMVVGLVELGILKGDIEQLIAEQAHRPFFMHGLSHWLGMDVHDVGDYGSSDRGRILEPGMVLTVEPGLYIAPDADVPPQYRGIGIRIEDDIVITATGNENLTASVVKDPDDIEALMALNH”, the “soluble on expression in E. coli” value is reported as “not soluble”. With “MADIGSTYNGPLSSHWFPEELAQWEPDSDPDAPFNRSHVPLEPGRVADRVNANADTDAHLVSLSALNRHTSGVPSQGAPVFYENTFSYWHYTDLMVYWAGSAGEGIIVPPSADVIDASHRNGVPILGNVFFPPTVYGGQLEWLEQMLEQEEDGSFPLADKLLEVADYYGFDGWFINQQTEGADEGTAEAMQAFLVYLQEQKPEGMHIMWYDSMIDTGAIAWQNHLTDRNKMYLQNGSTRVADSMFLNFWWRDQRQSNELAQALGRSPYDLYAGVDVEARGTSTPVQWEGLFPEGEKAHTSLGLYRPDWAFQSSETMEAFYEKELQFWVGSTGNPAETDGQSNWPGMAHWFPAKSTATSVPFVTHFNTGSGAQFSAEGKTVSEQEWNNRSLQDVLPTWRWIQHGGDLEATFSWEEAFEGGSSLQWHGSLAEGEHAQIELYQTELPISEGTSLTWTFKSEHGNDLNVGFRLDGEEDFRYVEGEQRESINGWTQWTLPLDAFAGQTITGLAFAAEGNETGLAEFYIGQLAVGADSEKPAAPNVNVRQYDPDPSGIQLVWEKQSNVHHYRVYKETKHGKELIGTSAGDRIYLEGLVEESKQNDVRLHIEALSETFVPSDARMIDIKSGSF” the “soluble on expression in E. coli” value was “soluble”. With “MNQWDQFLTPYKQAVDELKVKLKGMRKQYEVGEQASPIEFVTGRVKPIASIIDKANKRQIPFDRLREEMYDIAGLRMMCQFVEDIDVVVNILRQRKDFKVIEERDYIRNTKESGYRSYHVIIEYPIETLQGQKFILAEIQIRTLAMNFWATIEHTLRYKYDGAYPDEIQHRLERAAEAAYLLDEEMSEIKDEIQEAQKYYTQKRSKKHEND” the “soluble on expression in E. coli” value was “not soluble”. For “ELTLRIAYNLFTQRPKEEYDDFARWITMTGPGKGSDVYKMNGAGEMLVFSAADFEDFLEPRPDLMPAMEEELKKVVALLVEHRWPFRLHATYDESISRFLAVFEAVDREIPFRGLRWFFDHAETISNRNLERVRRLGGGIAIQDRMAFQGEYFVARYGAEAAKRTPPIARMLAMGIPVGAGTDATRVSSYNPWLSLYWLVSGKTVGGLPLYDDANRLDRTAALRLYTEGSSWFSGDNGSKGALIAGRHADLAVLSADYFAVPEARIKDIESVLTIMGGKIVHASDEFAPLAPPLPPVSPDWSPVASYGGYHGNAAVSTGLRREPCVCHSHSPAWSGPDPRFWGIGCDCFA”, the “soluble on expression in E. coli” value was “not soluble”. With “MSMKGKETMSKQNEKLVVGKLGSSYGIRGWLKVFSYTDNPESIFDYSPWYIDQKGEWVEYKVEGWKRHNKGWVVKLQGLDVREDAHLLTNFEIAIDPASLPELSEDEFYWRELFGMQVVTTNGYDLGVVTDMMETGSNDVLVVKANLKDAFGQKERLIPFLEEQVIKVVDRQAQRIEVDWDPAF” the “soluble on expression in E. coli” value was “soluble”. With “MFRVITRGAHTAASRQALIEKIIRVDHAGELGADRIYAGQLAVLQGSSVGSVIKKMWDEEKEHLDTMERLAAKHNVPHTVFSPVFSVAAYALGVGSALLGKEGAMACTIAVEELIGQHYNDQLKELLADDPETHKELLKILTRLRDEELHHHDTGVEHDGMKAPAYSALKWIIQTGCKGAIAIAEKI” the “soluble on expression in E. coli” value was “not soluble”. In the case of “MGSDKIHHHHHHMSVISENVKYFRKQLGFTQEQLAQRIGIKRSLLGAYEEGRAEPGLETLTILARLFETTVDALISETLSDPGKRKEAMSKDIEGKKLRVLAITVDKDDKENIQLVPEKAAAGYLNGYADPEYVAELPQFYLPIFSGSGTYRAFEIKGDSMLPLASGSLIIGQYVDNWSSVKDQQTYILVTATEGIVYKRIYNNIKKNETLKLVSDNPAYEPYDIHVENVIEIWESKAYISTDFPKPDMSVEKLTAIVSGLQKQMNKLSND”, the “soluble on expression in E. coli” value is reported as “not soluble”. With “MREMKKLVKIATSLTLMGGIFVSANGVSANTDVTQKSSPNIMIEFDDVTTDHWAYDEITNLVYHRIMYGYGNGKFGTEDNITREQAAAVLHRALGLKRSVFDANPYGDISGKSTMFPYEILHLTNLGIFKGDENGNFRPKDTLTRAELAQILTKAYELKAKSPHTFTDIPEKHWARDAISALQSNKVAVGTGDGKFEPEMLVTRGQFAKFLQRSIDNSPGKME” the “soluble on expression in E. coli” value was “not soluble”. For “RVAVLVATHGNNTASSMVSVAKKLLGEGLVEGIDMPLDQSPKIVLDKLTERAKEMDMGRGLLLLVDMGSLTSFAPVISERTGIPVRSIDMVSTATVIEAVRKSNILDMELDSIYDSLKDFRGYGGYNSDDDTLDS”, the “soluble on expression in E. coli” value was “not soluble”. With “MDTYQNMNFHDNINSNIPKNYNSFYEELKKNLNESDILTIAYEVEVLKNIKKINCDEIGKNWDYSFIDSEYGKSTLVILEVGYHLISPYIENNENKKKKLQLFLLLINSMYFPNPYHNANHGATVCHLSKCLAHITDYDSYLNNTYMICYLIASIAHDVGHPGKTNSYLSETNHILSIRYNDMSILENYHCSITFSILQLIGFDFLINNEDTKLVEKNNYTNMRKFIIELIISTDMKLHFEYVDIFKKRKKSQNFDISDTDAINLGTINIKLADIGHTCLKWKDHAKWTMLVSEEFFSQKRVEELHKNKNIDPLNFSNFGKEDNIDEGMIFNYENIYINYINNINNINTYDYSYIKLNFIHHHDFVKSIPSTQVYFFEIIVMPLIKELQSMEKSKKEITQKVLHNLNINLQTWRLIEKNINLFYNTEKMTGTDYYKNLEKQKLLRGIRLLDIAEEDVISLTKNFKEEIKHG” the “soluble on expression in E. coli” value was “not soluble”.
